Assay in all cases: SPR; Biacore 8K or 8K+, 25 °C, HBS-EP+ pH 7.4; IgG captured (400–425 RU) by goat anti-human Fc on CM5; human FcγRI 100 nM injected; response units at one concentration
(SPR reads the build-up and loss of mass on a sensor chip optically.)

Test [1] deals with ADI-26906 IgG1 L234A/L235A (human).
In test [2] the target is ADI-26906 IgG1 L234A/L235E (human).
The target of test [3] is ADI-26906 IgG1 LALA-A327G (L234A/L235A/A327G) (human).
Test [4] deals with ADI-26906 IgG1 LALA-A330S (L234A/L235A/A330S) (human).
The target in test [5] is ADI-26906 IgG1 LALA-A330S/P331S (L234A/L235A/A330S/P331S) (human).
Test [6] concerns the target ADI-26906 IgG1 LALA-D270A (L234A/L235A/D270A) (human).
The target in test [7] is ADI-26906 IgG1 LALA-H268Q (L234A/L235A/H268Q) (human).
For test [8], the target named is ADI-26906 IgG1 LALA-K322A (L234A/L235A/K322A) (human).
Test [9] addresses ADI-26906 IgG1 LALA-L309A (L234A/L235A/L309A) (human).
Test [10] addresses ADI-26906 IgG1 LALA-L309V (L234A/L235A/L309V) (human).
Test [11] addresses ADI-26906 IgG1 LALA-L328A (L234A/L235A/L328A) (human).
The target of test [12] is ADI-26906 IgG1 LALA-P331S (L234A/L235A/P331S) (human).
The target of test [13] is ADI-26906 IgG1 LALA-Y296F (L234A/L235A/Y296F) (human).
Test [14] concerns the target ADI-26906 IgG1 LALE-A330S (L234A/L235E/A330S) (human).
Test [15] has as its target ADI-26906 IgG1 LALE-A330S/P331S (L234A/L235E/A330S/P331S) (human).
For test [16], the target named is ADI-26906 IgG1 LALE-D270A (L234A/L235E/D270A) (human).
For test [17], the target named is ADI-26906 IgG1 LALE-H268Q (L234A/L235E/H268Q) (human).
Test [18] deals with ADI-26906 IgG1 LALE-K322A (L234A/L235E/K322A) (human).
In test [19] the target is ADI-26906 IgG1 LALE-L309A (L234A/L235E/L309A) (human).
Test [20] addresses ADI-26906 IgG1 LALE-L309V (L234A/L235E/L309V) (human).
Test [21] deals with ADI-26906 IgG1 LALE-L328A (L234A/L235E/L328A) (human).
The target of test [22] is ADI-26906 IgG1 LALE-P331S (L234A/L235E/P331S) (human).
Sequence of ADI-26906 IgG1 LALE-P331S (L234A/L235E/P331S) (human) (heavy, as listed by the source, chain 1 of 2): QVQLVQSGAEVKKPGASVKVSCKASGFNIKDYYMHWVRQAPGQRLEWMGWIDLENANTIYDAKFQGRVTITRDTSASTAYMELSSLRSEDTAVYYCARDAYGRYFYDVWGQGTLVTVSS
Sequence of ADI-26906 IgG1 LALE-P331S (L234A/L235E/P331S) (human) (light, as listed by the source, chain 2 of 2): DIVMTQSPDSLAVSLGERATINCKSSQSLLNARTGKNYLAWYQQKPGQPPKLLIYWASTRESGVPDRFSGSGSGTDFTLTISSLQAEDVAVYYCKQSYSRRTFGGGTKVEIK

Sequence of ADI-26906 IgG1 LALE-K322A (L234A/L235E/K322A) (human) (heavy, as listed by the source, chain 1 of 2): as the sequence (heavy, as listed by the source, chain 1 of 2) above
Sequence of ADI-26906 IgG1 LALE-K322A (L234A/L235E/K322A) (human) (light, as listed by the source, chain 2 of 2): as the sequence (light, as listed by the source, chain 2 of 2) above
Sequence of ADI-26906 IgG1 LALE-A330S (L234A/L235E/A330S) (human) (heavy, as listed by the source, chain 1 of 2): as the sequence (heavy, as listed by the source, chain 1 of 2) above
Sequence of ADI-26906 IgG1 LALE-A330S (L234A/L235E/A330S) (human) (light, as listed by the source, chain 2 of 2): as the sequence (light, as listed by the source, chain 2 of 2) above
Sequence of ADI-26906 IgG1 LALA-P331S (L234A/L235A/P331S) (human) (heavy, as listed by the source, chain 1 of 2): as the sequence (heavy, as listed by the source, chain 1 of 2) above
Sequence of ADI-26906 IgG1 LALA-P331S (L234A/L235A/P331S) (human) (light, as listed by the source, chain 2 of 2): as the sequence (light, as listed by the source, chain 2 of 2) above
Sequence of ADI-26906 IgG1 L234A/L235E (human) (heavy, as listed by the source, chain 1 of 2): as the sequence (heavy, as listed by the source, chain 1 of 2) above
Sequence of ADI-26906 IgG1 L234A/L235E (human) (light, as listed by the source, chain 2 of 2): as the sequence (light, as listed by the source, chain 2 of 2) above
Sequence of ADI-26906 IgG1 LALE-A330S/P331S (L234A/L235E/A330S/P331S) (human) (heavy, as listed by the source, chain 1 of 2): as the sequence (heavy, as listed by the source, chain 1 of 2) above
Sequence of ADI-26906 IgG1 LALE-A330S/P331S (L234A/L235E/A330S/P331S) (human) (light, as listed by the source, chain 2 of 2): as the sequence (light, as listed by the source, chain 2 of 2) above
Sequence of ADI-26906 IgG1 LALE-L328A (L234A/L235E/L328A) (human) (heavy, as listed by the source, chain 1 of 2): as the sequence (heavy, as listed by the source, chain 1 of 2) above
Sequence of ADI-26906 IgG1 LALE-L328A (L234A/L235E/L328A) (human) (light, as listed by the source, chain 2 of 2): as the sequence (light, as listed by the source, chain 2 of 2) above
Sequence of ADI-26906 IgG1 LALA-A330S/P331S (L234A/L235A/A330S/P331S) (human) (heavy, as listed by the source, chain 1 of 2): as the sequence (heavy, as listed by the source, chain 1 of 2) above
Sequence of ADI-26906 IgG1 LALA-A330S/P331S (L234A/L235A/A330S/P331S) (human) (light, as listed by the source, chain 2 of 2): as the sequence (light, as listed by the source, chain 2 of 2) above
Sequence of ADI-26906 IgG1 LALA-L309A (L234A/L235A/L309A) (human) (heavy, as listed by the source, chain 1 of 2): as the sequence (heavy, as listed by the source, chain 1 of 2) above
Sequence of ADI-26906 IgG1 LALA-L309A (L234A/L235A/L309A) (human) (light, as listed by the source, chain 2 of 2): as the sequence (light, as listed by the source, chain 2 of 2) above
Sequence of ADI-26906 IgG1 LALA-A327G (L234A/L235A/A327G) (human) (heavy, as listed by the source, chain 1 of 2): as the sequence (heavy, as listed by the source, chain 1 of 2) above
Sequence of ADI-26906 IgG1 LALA-A327G (L234A/L235A/A327G) (human) (light, as listed by the source, chain 2 of 2): as the sequence (light, as listed by the source, chain 2 of 2) above
Sequence of ADI-26906 IgG1 LALA-A330S (L234A/L235A/A330S) (human) (heavy, as listed by the source, chain 1 of 2): as the sequence (heavy, as listed by the source, chain 1 of 2) above
Sequence of ADI-26906 IgG1 LALA-A330S (L234A/L235A/A330S) (human) (light, as listed by the source, chain 2 of 2): as the sequence (light, as listed by the source, chain 2 of 2) above
Sequence of ADI-26906 IgG1 LALE-D270A (L234A/L235E/D270A) (human) (heavy, as listed by the source, chain 1 of 2): as the sequence (heavy, as listed by the source, chain 1 of 2) above
Sequence of ADI-26906 IgG1 LALE-D270A (L234A/L235E/D270A) (human) (light, as listed by the source, chain 2 of 2): as the sequence (light, as listed by the source, chain 2 of 2) above
Sequence of ADI-26906 IgG1 LALA-L309V (L234A/L235A/L309V) (human) (heavy, as listed by the source, chain 1 of 2): as the sequence (heavy, as listed by the source, chain 1 of 2) above
Sequence of ADI-26906 IgG1 LALA-L309V (L234A/L235A/L309V) (human) (light, as listed by the source, chain 2 of 2): as the sequence (light, as listed by the source, chain 2 of 2) above
Sequence of ADI-26906 IgG1 LALA-H268Q (L234A/L235A/H268Q) (human) (heavy, as listed by the source, chain 1 of 2): as the sequence (heavy, as listed by the source, chain 1 of 2) above
Sequence of ADI-26906 IgG1 LALA-H268Q (L234A/L235A/H268Q) (human) (light, as listed by the source, chain 2 of 2): as the sequence (light, as listed by the source, chain 2 of 2) above
Sequence of ADI-26906 IgG1 LALA-L328A (L234A/L235A/L328A) (human) (heavy, as listed by the source, chain 1 of 2): as the sequence (heavy, as listed by the source, chain 1 of 2) above
Sequence of ADI-26906 IgG1 LALA-L328A (L234A/L235A/L328A) (human) (light, as listed by the source, chain 2 of 2): as the sequence (light, as listed by the source, chain 2 of 2) above
Sequence of ADI-26906 IgG1 LALA-D270A (L234A/L235A/D270A) (human) (heavy, as listed by the source, chain 1 of 2): as the sequence (heavy, as listed by the source, chain 1 of 2) above
Sequence of ADI-26906 IgG1 LALA-D270A (L234A/L235A/D270A) (human) (light, as listed by the source, chain 2 of 2): as the sequence (light, as listed by the source, chain 2 of 2) above
Sequence of ADI-26906 IgG1 LALE-L309V (L234A/L235E/L309V) (human) (heavy, as listed by the source, chain 1 of 2): as the sequence (heavy, as listed by the source, chain 1 of 2) above
Sequence of ADI-26906 IgG1 LALE-L309V (L234A/L235E/L309V) (human) (light, as listed by the source, chain 2 of 2): as the sequence (light, as listed by the source, chain 2 of 2) above
Sequence of ADI-26906 IgG1 LALA-Y296F (L234A/L235A/Y296F) (human) (heavy, as listed by the source, chain 1 of 2): as the sequence (heavy, as listed by the source, chain 1 of 2) above
Sequence of ADI-26906 IgG1 LALA-Y296F (L234A/L235A/Y296F) (human) (light, as listed by the source, chain 2 of 2): as the sequence (light, as listed by the source, chain 2 of 2) above

Regarding “human FcγRI (CD64) (from UniProt P12314 16-374) (receptor)”, the response (RU) turned out to be 23.5 RU in test [1]; 3.8 RU in test [2]; 14.3 RU in test [3]; 19.9 RU in [4]; 15.8 RU in [5]; 9.7 RU in test [6]. For the same substance, the response (RU) in test [7] was 22.9 RU; in test [8] it was 19.9 RU; in test [9], 21.6 RU; in [10], 25.2 RU; in test [11] it was 13.6 RU; in test [12], 17.7 RU. Also, the response (RU) in test [13] was determined as 19.1 RU; in test [14], 3.3 RU; in test [15], 2.6 RU; in test [16], 1.8 RU; in test [17], 4.3 RU; in test [18] it was 4.6 RU. Also, the response (RU) in test [19] is 4.2 RU; in test [20], 4.9 RU; in test [21], 3.5 RU; in test [22] it was 3.3 RU.

For the origin of these results see PMC10526015.
